# Assay results taken from publication PMC6757426, “Stability and flexibility of full-length human oligodendrocytic QKI6” (BMC Research Notes, 2019).
# Target: the molecule itself
# Assay: SEC-MALS; Superdex 200 pg increase 10/300GL, 20 mM Tris-HCl, 300 mM NaCl, 0.5 mM TCEP, pH 8.0; 200 ug QKI6 injected at 0.4 ml/min; no RNA
protein,measurement,value
"Quaking isoform 6 (QKI6), full-length human (natural protein, UniProt Q96PU8-9 1-319, looked up, Quaking isoform 6 (QKI6), human, UniProt Q96PU8-9, amino acids 1-319; calculated molecular weight of the construct 35,187.8 Da; also called full-length QKI6; human QKI6; source: E. coli BL21(DE3), purified (Ni-NTA, TEV digestion, second Ni-NTA, gel filtration on Superdex 200)) MVGEMETKEKPKPTPDYLMQLMNDKKLMSSLPNFCGIFNHLERLLDEEISRVRKDMYNDTLNGSTEKRSAELPDAVGPIVQLQEKLYVPVKEYPDFNFVGRILGPRGLTAKQLEAETGCKIMVRGKGSMRDKKKEEQNRGKPNWEHLNEDLHVLITVEDAQNRAEIKLKRAVEEVKKLLVPAAEGEDSLKKMQLMELAILNGTYRDANIKSPALAFSLAATAQAAPRIITGPAPVLPPAALRTPTPAGPTIMPLIRQIQTAVMPNGTPHPTAAIVPPGPEAGLIYTPYEYPYTLAPATSILEYPIEPSGVLGMAFPTKG",stoichiometry N,2
